Data: article PMC5972661, “ECD1 functions as an RNA-editing trans-factor of rps14-149 in plastids and is required for early chloroplast development in seedlings”

T1: MBP-ECD1 (UniProt Q5G1T1 51-850)
T1 sequence: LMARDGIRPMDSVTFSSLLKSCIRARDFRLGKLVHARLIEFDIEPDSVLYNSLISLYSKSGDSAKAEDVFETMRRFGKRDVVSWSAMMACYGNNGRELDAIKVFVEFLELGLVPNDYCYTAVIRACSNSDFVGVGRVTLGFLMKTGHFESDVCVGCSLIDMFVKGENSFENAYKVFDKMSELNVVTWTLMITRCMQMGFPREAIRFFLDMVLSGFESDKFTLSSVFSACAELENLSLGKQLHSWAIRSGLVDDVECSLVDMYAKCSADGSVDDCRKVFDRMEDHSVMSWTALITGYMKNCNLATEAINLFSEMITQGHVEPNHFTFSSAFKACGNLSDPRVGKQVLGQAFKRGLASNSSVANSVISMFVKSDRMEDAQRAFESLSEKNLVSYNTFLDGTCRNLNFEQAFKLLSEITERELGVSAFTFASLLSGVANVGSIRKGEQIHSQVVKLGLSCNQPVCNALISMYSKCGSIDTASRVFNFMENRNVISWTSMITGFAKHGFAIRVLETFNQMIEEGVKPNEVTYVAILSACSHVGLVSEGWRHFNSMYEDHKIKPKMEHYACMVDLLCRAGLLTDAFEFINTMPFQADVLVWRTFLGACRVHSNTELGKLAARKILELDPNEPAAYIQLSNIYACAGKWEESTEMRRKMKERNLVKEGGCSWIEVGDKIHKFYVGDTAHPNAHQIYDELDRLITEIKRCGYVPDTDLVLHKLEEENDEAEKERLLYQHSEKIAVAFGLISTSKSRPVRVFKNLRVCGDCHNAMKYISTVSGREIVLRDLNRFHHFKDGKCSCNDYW


Assays:
MBP-ECD1 [1] = target: T1, MBP-ECD1; test: EMSA; 25, 50, 100 nM protein, 10 nM probe; unlabeled same RNA (10-, 50-, 100-fold) used as competitor confirmed specificity; LightShift Chemiluminescent RNA EMSA Kit (Thermo 20158), 20 min at 25 °C, 6% Tris-borate gel in 0.5x TBE; binding buffer, salt and pH not stated; conditions: protein: recombinant; tags: N-terminal MBP; primer adds HHHHHH-ENLYFQG (TEV site); label: 5' biotin; single strand
MBP-ECD1 [2] = target: T1, MBP-ECD1; test: EMSA; 25, 50, 100 nM protein, 10 nM probe; LightShift Chemiluminescent RNA EMSA Kit (Thermo 20158), 20 min at 25 °C, 6% Tris-borate gel in 0.5x TBE; binding buffer, salt and pH not stated; conditions: protein: recombinant; tags: N-terminal MBP; primer adds HHHHHH-ENLYFQG (TEV site); label: 5' biotin; single strand

Row | Binder | binding result (MBP-ECD1 [1]) | binding result (MBP-ECD1 [2])
1 | GAAAAUUCAUGGAAAAUUACAAUCCCCACCGCG (ssRNA) [rps14-149] | binds | 
2 | AAAUAUCAUUUGAUUCGUCGAUCCUCAAAAAAG (ssRNA) [rps14-80] |  | no binding
